Substrate in the data set: [H][C@@]12CCc3c(ccc(O)c3O)[C@@]1([H])CC[C@]1(C)[C@@H](O)CC[C@@]21[H]
The experiment in a line: enzyme kinetics of O-methylation by recombinant COMT, HPLC-DAD (Km). It counts as biochemical, Homo sapiens. The note with it: S-adenosyl-L-methionine (SAM).

B1: catechol O-methyl transferase (COMT) (Homo sapiens) (protein)
chain: MGDTKEQRILNHVLQHAEPGNAQSVLEAIDTYCEQKEWAMNVGDKKGKIVDAVIQEHQPSVLLELGAYCGYSAVRMARLLSPGARLITIEINPDCAAITQRMVDFAGVKDKVTLVVGASQDIIPQLKKKYDVDTLDMVFLDHWKDRYLPDTLLLEECGLLRKGTVLLADNVICPGAPDFLAHVRGSSCFECTHYQSFLEYREVVDGLEKAIYKGPGSEAGP
notes: recombinant human soluble COMT, hexahistidine-tagged
As a reminder, the Km is the substrate concentration at which the rate is half of its maximum. For orientation: Vmax means the rate approached at saturating substrate. Take B1: the Michaelis-Menten constant (Km) (Mg2+) turned out to be 37.9 µM. The Vmax (Mg2+ docking only: active site, hydrogen bonds with Glu199 and Asn170) stood at 3.26 µmol/min/mg.

Source of the values: publication PMC8038350, “Nordihydroguaiaretic Acid as a Novel Substrate and Inhibitor of Catechol O-Methyltransferase Modulates 4-Hydroxyestradiol-Induced Cyto- and Genotoxicity in MCF-7 Cells” (Molecules, 2021).
